Substitutions are numbered along the chain they refer to. Numbers in names are those of the source.
Experiments:
[1] = test system: LPS induced mouse proteinuria model; test: LPS induced mouse proteinuria model, protein in urine (prevention and reversal by dynamin gene delivery); type: in vivo
Procedure: Next, it was examined whether gene transfer of dynR725A and dynL356Q, G358V was able to protect from LPS induced changes of podocyte FP and thus proteinuria (FIGS. 6A-B); (Table 2B). […] Whereas the application of wildtype dynamin was unable to protect from LPS induced podocyte FP effacement (data not shown) and proteinuria (0.63 mg/ml after 24 hours, p<0.05 and 1.18 mg/ml after 48 hours, p<0.04); table 2B, the co-administration of R725A together with LPS completely abolished the development of proteinuria after 24 hours (0.20 mg/ml). Podocyte FPs remained normal at this timepoint (FIG. 6B). The decline of R725A expression in podocytes was then associated with the development of proteinuria (1.25 mg/ml, 48 h). At this time point, there was noticeable podocyte FP effacement. The application of the cathepsin L resistant dynamin mutant L356Q, G358V together with LPS conferred a partial protection from proteinuria (0.47 mg/ml, P<0.05). This protection was associated with normal appearing podocyte FP (FIG. 6C). Although this protection was not as strong as the one provided by dynR725A, it was prolonged and was still present even after the second dose of LPS ([…], P<0.04). This observation argues that lower expression levels of dynL356Q, G358V are required to protect from LPS induced FP effacement but the presence of dynR725A has the most powerful protection.
Another set of experiments was carried out to study whether dynR725A and dynL356Q, G358V are also useful once there is already established podocyte damage and proteinuria (reversal experiments), (FIGS. 6C, D); (Table 2C). First LPS was injected in mice at 0 and 24 hours and the course of urinary protein loss was documented. On the peak phase of proteinuria at 48 hours after the first LPS injection, either delivery solution (control), dynR725A or dynL356Q, G358V dynamin mutants were transferred and the morphology of podocyte FP was analyzed and the degree of proteinuria was determined 10 hours later when there was strong expression of the transferred gene in podocytes. […] A dramatic reformation of podocyte FPs was also observed (FIG. 6C). The same observation was true for L356Q, G358V (FIG. 6D) which was able to reduce proteinuria from 1.20 mg/ml to 0.71 mg/ml). From the in vitro data it was determined that R725A starts to self assemble into higher order structures in the LPS setting which render dynamin assembly domain protected from cathepsin L cleavage. […] In addition, dominant activating dynR725A proves useful because despite causing podocyte damage in wildtype mice, it can resist cathepsin L cleavage by self assembly in the LPS setting and have strong activity by impairment in its GTP hydrolysis.
If dynamin is a target of CatL, then dynL356Q and dynR725A, which are resistant to CatL cleavage, might protect kidneys from LPS. In control mice, two injections of LPS led to FP effacement (FIG. 21C) and a large increase in proteinuria (FIG. 21E, Con).
Next it was examined whether dynL356Q and dynR725A can reverse already established proteinuria. LPS was injected into mice at 0 and 24 hours. At the peak of proteinuria at 48 hours, mice were injected with dynWT, dynL356Q, or dynR725A, and the degree of proteinuria was analyzed 12 hours post injection. […] The rescue could be achieved with both podocin and CMV-driven protein expression.
All animal studies were approved by the MGH Subcommittee for Research Animal Care. C57BL6 mice were obtained from Jackson Laboratory (Bar Harbor, Me.). CatL−/− mice are in a pure C57BL6 background (Nakagawa et al., Science 280, 450-453 (1998)). LPS induced mouse proteinuria model was utilized as previously described (Reiser et al., J Clin Invest 113, 1390-1397 (2004)). Rat PAN nephrosis model was induced by a single intravenous injection of PAN (180 mg/kg body wt; Sigma-Aldrich, St. Louis, Mo.) (Kim et al., Am J Physiol Renal Physiol 286, F922-935 (2004)). […]

dynamin = test: Dynamin self-assembly, apparent affinity measured in vitro; type: biochemical
Description: The fact that this significant decrease in the fluorescence lifetime of ECFP is statistically insignificant is due to high fluctuations of the lifetimes between different cells (high error bar in Table 3). This is most likely due to ability of dynK694A to overcome its assembly defect under certain circumstances as shown in vitro. The fact that ECFP-dynK694A has a faster lifetime than ECFP-dynI690K is in agreement with its less severe assembly defect measured in vitro (apparent affinity of dynK694A is ˜7-fold lower then dynWT, whereas it is unmeasurable for dynI690K).

[2] = Table 2B Prevention, 2xLPS, t = 0
[3] = Table 2B Prevention, 2xLPS, t = 10 h
[4] = Table 2C Reversal, LPS at 0 and 24 h, t = 0
[5] = gene delivery immediately before LPS injection
[6] = injected at 48 hours, analyzed 12 hours post injection

## dynWT: wild type dynamin overexpressed by adenovirus or delivered as dynamin 1 cDNA
[1]; [2]
  Protein in the urine: 0.28 ± 0.07 mg/mL
[1]; [3]
  Protein in the urine: 0.27 ± 0.07 mg/mL
[1]; Table 2B Prevention, 2xLPS, t = 24 h, listed as Dyn WT
  Protein in the urine: 0.63 ± 0.12 mg/mL
[1]; Table 2B Prevention, 2xLPS, t = 24 h, listed as wildtype dynamin
  Protein in the urine: 0.63 mg/mL
[1]; Table 2B Prevention, 2xLPS, t = 48 h, listed as Dyn WT
  Protein in the urine: 1.18 ± 0.23 mg/mL
[1]; Table 2B Prevention, 2xLPS, t = 48 h, listed as wildtype dynamin
  Protein in the urine: 1.18 mg/mL
[1]; [4]
  Protein in the urine: 0.30 ± 0.10 mg/mL
[1]; Table 2C Reversal, t = 48 h, at gene transfer, listed as Dyn WT
  Protein in the urine: 1.17 ± 0.18 mg/mL
[1]; Table 2C Reversal, t = 48 h, at gene transfer, listed as wildtype dynamin
  Protein in the urine: 1.26 mg/mL
[1]; Table 2C Reversal, t = 58 h, 10 hours after gene transfer, listed as Dyn WT
  Protein in the urine: 1.10 ± 0.17 mg/mL
[1]; Table 2C Reversal, t = 58 h, 10 hours after gene transfer, listed as wildtype dynamin
  Protein in the urine: 1.32 mg/mL
[1]; [5]
  protection from LPS-induced proteinuria, in words: did not protect against these changes
[1]; [6]
  reversal of established proteinuria, in words: did not reduce proteinuria

B1: dynK694A: dominant activator dynamin mutant impaired in self-assembly (protein)
chain: MGNRGMEDLIPLVNRLQDAFSAIGQNADLDLPQIAVVGGQSAGKSSVLENFVGRDFLPRGSGIVTRRPLVLQLVNATTEYAEFLHCKGKKFTDFEEVRLEIEAETDRVTGTNKGISPVPINLRVYSPHVLNLTLVDLPGMTKVPVGDQPPDIEFQIRDMLMQFVTKENCLILAVSPANSDLANSDALKVAKEVDPQGQRTIGVITKLDLMDEGTDARDVLENKLLPLRRGYIGVVNRSQKDIDGKKDITAALAAERKFFLSHPSYRHLADRMGTPYLQKVLNQQLTNHIRDTLPGLRNKLQSQLLSIEKEVEEYKNFRPDDPARKTKALLQMVQQFAVDFEKRIEGSGDQIDTYELSGGARINRIFHERFPFELVKMEFDEKELRREISYAIKNIHGIRTGLFTPDMAFETIVKKQVKKIREPCLKCVDMVISELISTVRQCTKKLQQYPRLREEMERIVTTHIREREGRTKEQVMLLIDIELAYMNTNHEDFIGFANAQQRSNQMNKKKTSGNQDEILVIRKGWLTINNIGIMKGGSKEYWFVLTAENLSWYKDDEEKEKKYMLSVDNLKLRDVEKGFMSSKHIFALFNTEQRNVYKDYRQLELACETQEEVDSWKASFLRAGVYPERVGDKEKASETEENGSDSFMHSMDPQLERQVETIRNLVDSYMAIVNKTVRDLMPKTIMHLMINNTAEFIFSELLANLYSCGDQNTLMEESAEQAQRRDEMLRMYHALKEALSIIGDINTTTVSTPMPPPVDDSWLQVQSVPAGRRSPTSSPTPQRRAPAVPPARPGSRGPAPGPPPAGSALGGAPPVPSRPGASPDPFGPPPQVPSRPNRAPPGVPSRSGQASPSRPESPRPPFDL
dynamin
  apparent affinity for self-assembly, fold lower than dynWT: ~7 fold

B2: dynR725A: dynamin mutant (SEQ ID NO.4) with impaired GTP hydrolysis capacity (protein, listed as Homo sapiens)
chain: B1 chain with A694K, R725A
[1]; [2]
  Protein in the urine: 0.17 ± 0.07 mg/mL
[1]; [3]
  Protein in the urine: 0.23 ± 0.07 mg/mL
[1]; Table 2B Prevention, 2xLPS, t = 24 h
  Protein in the urine: 0.20 mg/mL
[1]; Table 2B Prevention, 2xLPS, t = 48 h, listed as Dyn R725A
  Protein in the urine: 1.25 ± 0.26 mg/mL
[1]; Table 2B Prevention, 2xLPS, t = 48 h, listed as R725A
  Protein in the urine: 1.25 mg/mL
[1]; [4]
  Protein in the urine: 0.28 ± 0.08 mg/mL
[1]; Table 2C Reversal, t = 48 h, at gene transfer
  Protein in the urine: 1.15 mg/mL
[1]; Table 2C Reversal, t = 48 h, at gene transfer, listed as Dyn R725A
  Protein in the urine: 1.15 ± 0.15 mg/mL
[1]; Table 2C Reversal, t = 58 h, 10 hours after gene transfer
  Protein in the urine: 0.38 mg/mL
[1]; Table 2C Reversal, t = 58 h, 10 hours after gene transfer, listed as Dyn R725A
  Protein in the urine: 0.38 ± 0.20 mg/mL
[1]; [5]
  protection from LPS-induced proteinuria, in words: completely inhibited development of proteinuria after 24 hours
[1]; [6]
  reversal of established proteinuria, in words: almost complete reversal of proteinuria

B3: dynL356Q, G358V: dynamin mutant (SEQ ID NO.3) not recognized by cathepsin L; ELSGGA mutated to EQSVGA (protein, listed as Homo sapiens)
chain: B1 chain with L356Q, G358V, A694K
[1]; [2]
  Protein in the urine: 0.21 ± 0.05 mg/mL
[1]; [3]
  Protein in the urine: 0.26 ± 0.05 mg/mL
[1]; Table 2B Prevention, 2xLPS, t = 24 h, listed as Dyn L356Q, G358V
  Protein in the urine: 0.47 ± 0.17 mg/mL
[1]; Table 2B Prevention, 2xLPS, t = 24 h, listed as L356Q, G358V
  Protein in the urine: 0.47 mg/mL
[1]; Table 2B Prevention, 2xLPS, t = 48 h
  Protein in the urine: 0.65 ± 0.10 mg/mL
[1]; [4]
  Protein in the urine: 0.18 ± 0.08 mg/mL
[1]; Table 2C Reversal, t = 48 h, at gene transfer, listed as Dyn L356Q, G358V
  Protein in the urine: 1.20 ± 0.27 mg/mL
[1]; Table 2C Reversal, t = 48 h, at gene transfer, listed as L356Q, G358V
  Protein in the urine: 1.20 mg/mL
[1]; Table 2C Reversal, t = 58 h, 10 hours after gene transfer, listed as Dyn L356Q, G358V
  Protein in the urine: 0.71 ± 0.09 mg/mL
[1]; Table 2C Reversal, t = 58 h, 10 hours after gene transfer, listed as L356Q, G358V
  Protein in the urine: 0.71 mg/mL
[1]; [5]
  reduction of proteinuria: ~50%
[1]; prevention, after the second dose of LPS
  proteinuria: 0.65 mg/dL
[1]; reversal, injected at 48 hours, analyzed 12 hours post injection
  reduction of proteinuria: ~50%
